Data reported in article PMC4724879 (Chemical science (Royal Society of Chemistry : 2010), 2014).

Molecular target: the molecule itself
Test: crystal structure

B1: Helicobacter pylori high temperature requirement A protein (HpHtrA) (enzyme)
chain: GNIQIQSMPKVKERVSVPSKDDTIYSYHDSIKDSIKAVVNISTEKKIKNNFIGGGVFNDPFFQQFFGDLGGMIPKERMERALGSGVIISKDGYIVTNNHVIDGADKIKVTIPGSNKEYSATLVGTDSESDLAVIRITKDNLPTIKFSDSNDISVGDLVFAIGNPFGVGESVTQGIVSALNKSGIGINSYENFIQTDASINPGNSGGALIDSRGGLVGINTAIISKTGGNHGIGFAIPSNMVKDTVTQLIKTGKIERGYLGVGLQDLSGDLQNSYDNKEGAVVISVEKDSPAKKAGILVWDLITEVNGKKVKNTNELRNLIGSMLPNQRVTLKVIRDKKERAFTLTLAERKNPNKKETISAQNGAQGQLNGLQVEDLTQETKRSMRLSDDVQGVLVSQVNENSPAEQAGFRQGNIITKIEEVEVKSVADFNHALEKYKGKPKRFLVLDLNQGYRIILVK
stoichiometry N: 6
